Experimental data taken from PMC7177239, “Transitional States in Ligand-Dependent Transformation of the Aryl Hydrocarbon Receptor into Its DNA-Binding Form” (International Journal of Molecular Sciences, 2020).
Numbering of substitutions follows the chain as printed. One block for each molecule: values may come before it.

Key:
[1] = molecular target: T1, aryl hydrocarbon receptor (AhR), wild type (Mus musculus, UniProt P30561); assay: [3H]TCDD saturation binding, hydroxyapatite assay
T1 construct: wtAhR (mβAhR/pcDNA3), synthesized in vitro in rabbit reticulocyte lysate
T1 sequence (P30561 10-848): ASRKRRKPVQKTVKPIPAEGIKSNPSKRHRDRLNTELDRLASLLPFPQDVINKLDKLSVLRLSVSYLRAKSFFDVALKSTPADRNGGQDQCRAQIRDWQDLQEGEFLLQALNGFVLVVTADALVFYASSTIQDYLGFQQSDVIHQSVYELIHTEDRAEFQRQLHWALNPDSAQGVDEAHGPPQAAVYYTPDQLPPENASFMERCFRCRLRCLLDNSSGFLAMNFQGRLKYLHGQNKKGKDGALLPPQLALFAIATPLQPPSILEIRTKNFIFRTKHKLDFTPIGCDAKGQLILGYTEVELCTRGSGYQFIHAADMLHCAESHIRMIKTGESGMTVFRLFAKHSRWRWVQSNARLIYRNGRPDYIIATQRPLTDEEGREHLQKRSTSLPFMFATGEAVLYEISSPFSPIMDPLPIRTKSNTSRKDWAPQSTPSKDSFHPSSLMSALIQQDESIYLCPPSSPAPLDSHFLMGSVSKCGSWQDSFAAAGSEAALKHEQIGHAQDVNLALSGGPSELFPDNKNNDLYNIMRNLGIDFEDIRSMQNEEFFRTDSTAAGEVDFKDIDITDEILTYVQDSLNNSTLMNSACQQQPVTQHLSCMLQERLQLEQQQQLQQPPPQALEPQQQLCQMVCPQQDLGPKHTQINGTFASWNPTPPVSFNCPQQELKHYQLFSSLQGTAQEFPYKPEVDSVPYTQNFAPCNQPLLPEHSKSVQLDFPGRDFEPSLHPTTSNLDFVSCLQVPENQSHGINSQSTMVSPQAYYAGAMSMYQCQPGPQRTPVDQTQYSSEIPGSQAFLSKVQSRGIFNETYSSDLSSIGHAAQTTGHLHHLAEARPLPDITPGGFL

[2] = molecular target: T2, aryl hydrocarbon receptor (AhR) (Mus musculus, UniProt P30561, D371A); assay: [3H]TCDD saturation binding, hydroxyapatite assay
T2 construct: mutant of mβAhR/pcDNA3, synthesized in vitro in rabbit reticulocyte lysate
T2 sequence (P30561 10-848 D371A): T1 sequence (P30561 10-848) with D362A

[3] = molecular target: heat shock protein 90 (rabbit (endogenous in reticulocyte lysate)) (UniProt P30946)
AhR A375V;ARNT = assay: EMSA; conditions: MEDG (25 mM MOPS pH 7.5, 1 mM EDTA, 1 mM DTT, 10% glycerol), 150 mM KCl (no added KCl for AhRdPASB and AhR/PASB-ARNT), AhR:ARNT:buffer 1:1:8, 10 nM TCDD or 1% …
AhR D371A;ARNT = assay: EMSA; conditions: MEDG (25 mM MOPS pH 7.5, 1 mM EDTA, 1 mM DTT, 10% glycerol), 150 mM KCl (no added KCl for AhRdPASB and AhR/PASB-ARNT), AhR:ARNT:buffer 1:1:8, 10 nM TCDD or 1% …
AhR F281A;ARNT = assay: EMSA; conditions: MEDG (25 mM MOPS pH 7.5, 1 mM EDTA, 1 mM DTT, 10% glycerol), 150 mM KCl (no added KCl for AhRdPASB and AhR/PASB-ARNT), AhR:ARNT:buffer 1:1:8, 10 nM TCDD or 1% …
AhR R217A;ARNT = assay: EMSA; conditions: MEDG (25 mM MOPS pH 7.5, 1 mM EDTA, 1 mM DTT, 10% glycerol), 150 mM KCl (no added KCl for AhRdPASB and AhR/PASB-ARNT), AhR:ARNT:buffer 1:1:8, 10 nM TCDD or 1% …
AhR/PASB-ARNT;ARNT = assay: EMSA; conditions: MEDG (25 mM MOPS pH 7.5, 1 mM EDTA, 1 mM DTT, 10% glycerol), 150 mM KCl (no added KCl for AhRdPASB and AhR/PASB-ARNT), AhR:ARNT:buffer 1:1:8, 10 nM TCDD or 1% …
AhRdPASB;ARNT = assay: EMSA; conditions: MEDG (25 mM MOPS pH 7.5, 1 mM EDTA, 1 mM DTT, 10% glycerol), 150 mM KCl (no added KCl for AhRdPASB and AhR/PASB-ARNT), AhR:ARNT:buffer 1:1:8, 10 nM TCDD or 1% …
wtAhR;ARNT = assay: EMSA; conditions: MEDG (25 mM MOPS pH 7.5, 1 mM EDTA, 1 mM DTT, 10% glycerol), 150 mM KCl (no added KCl for AhRdPASB and AhR/PASB-ARNT), AhR:ARNT:buffer 1:1:8, 10 nM TCDD or 1% …

Chain of wild type aryl hydrocarbon receptor (mouse) (P30561 whole entry): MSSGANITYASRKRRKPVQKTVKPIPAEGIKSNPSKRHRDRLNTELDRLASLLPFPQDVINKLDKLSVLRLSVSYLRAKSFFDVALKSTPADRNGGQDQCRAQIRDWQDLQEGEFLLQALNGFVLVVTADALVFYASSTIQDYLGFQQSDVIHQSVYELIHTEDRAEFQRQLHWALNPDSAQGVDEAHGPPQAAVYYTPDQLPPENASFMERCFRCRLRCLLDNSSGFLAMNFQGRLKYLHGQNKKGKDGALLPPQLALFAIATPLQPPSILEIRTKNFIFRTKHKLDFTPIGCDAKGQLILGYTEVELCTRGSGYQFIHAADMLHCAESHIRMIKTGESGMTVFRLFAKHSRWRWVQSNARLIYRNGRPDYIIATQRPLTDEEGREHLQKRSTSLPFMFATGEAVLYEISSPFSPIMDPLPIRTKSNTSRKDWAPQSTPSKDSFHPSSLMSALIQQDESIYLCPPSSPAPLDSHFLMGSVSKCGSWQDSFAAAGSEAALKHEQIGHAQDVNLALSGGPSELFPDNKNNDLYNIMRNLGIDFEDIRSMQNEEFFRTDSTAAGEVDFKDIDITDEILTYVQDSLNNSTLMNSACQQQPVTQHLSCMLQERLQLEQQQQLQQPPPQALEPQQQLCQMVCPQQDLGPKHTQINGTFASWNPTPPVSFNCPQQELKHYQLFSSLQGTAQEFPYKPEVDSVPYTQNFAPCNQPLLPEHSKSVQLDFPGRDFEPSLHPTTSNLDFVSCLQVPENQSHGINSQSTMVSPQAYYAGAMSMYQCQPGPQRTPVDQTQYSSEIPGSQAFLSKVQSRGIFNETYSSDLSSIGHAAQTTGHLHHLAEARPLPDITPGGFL
Chain of AhRdPASB (P30561 whole entry): as above

Molecule: Clc1cc2c(cc1Cl)Oc1cc(Cl)c(Cl)cc1O2 [TCDD, 2,3,7,8-tetrachlorodibenzo-p-dioxin]
Kd [1]: 4.6 ± 0.3 nM | Kd [2]: 5 ± 0.4 nM

Molecule: AhR/PASB-ARNT
percent inhibition by sodium molybdate of constitutive AhR transformation/DNA binding in vitro (gel retardation) [3]: 9.1%

Molecule: DRE3
binding signal (% of wt DNA binding) (AhR A375V;ARNT): 55 | binding signal (% inhibition by molybdate) (AhR D371A;ARNT): 61.7 | binding signal (% inhibition by molybdate) (AhR F281A;ARNT): 5 | binding signal (% inhibition by molybdate) (AhR R217A;ARNT): 67.1 | binding signal (% inhibition by molybdate) (AhR/PASB-ARNT;ARNT): 9.1 | binding signal (% inhibition by molybdate) (AhRdPASB;ARNT): 4.3 | binding signal (% DNA binding (reference)) (wtAhR;ARNT): 100 | binding signal (% inhibition by molybdate) (wtAhR;ARNT): 69.6

Other lines, results leading:

percent inhibition by 20 mM sodium molybdate of constitutive AhR transformation/DNA binding in vitro (gel retardation) [3]: 5%
Molecule: AhR F281A (from UniProt P30561 1-848) (natural protein)

percent inhibition by sodium molybdate of constitutive AhR transformation/DNA binding in vitro (gel retardation) [3]: 4.3%
Molecule: AhRdPASB (from UniProt P30561 1-848) (natural protein)

percent inhibition by sodium molybdate (up to 20 mM) of TCDD-dependent AhR transformation/DNA binding in vitro (gel retardation) [3]: 69.6%
Molecule: wild type aryl hydrocarbon receptor (mouse) (from UniProt P30561 1-848) (natural protein)
